# Assay results as given in PMC8249747.
# Biological target: T1, QseA (YhcS, AaeR) (Escherichia coli K-12 W3110 type-A) (UniProt P67662)
# T1 sequence: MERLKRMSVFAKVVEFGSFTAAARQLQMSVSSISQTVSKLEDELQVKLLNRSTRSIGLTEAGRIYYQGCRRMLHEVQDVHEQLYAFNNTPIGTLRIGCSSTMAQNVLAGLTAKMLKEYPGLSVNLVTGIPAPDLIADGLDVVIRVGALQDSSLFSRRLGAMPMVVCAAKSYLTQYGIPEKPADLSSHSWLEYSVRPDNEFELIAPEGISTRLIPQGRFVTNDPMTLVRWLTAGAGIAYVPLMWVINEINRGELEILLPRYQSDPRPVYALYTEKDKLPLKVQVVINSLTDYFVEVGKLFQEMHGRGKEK
# Test: EMSA
# Settings: EMSA: gel shift buffer (composition not given), 37 C 30 min, PAGE, GelRed, footprinting: 1.0 pmol FITC probe, 25 C 30 min, 5 ng …
sequence,measurement,value
GCGTTTTAGTCGTTCCATTATTCACTCTGACTTAAAAGTGATTTAGATCACATAATATAGATAACAGCATAACAGTTACGCTAATATATTAAATATCAATCTACAGCAATGTTGCTCTCGCCCGGCTTTCCATGCCCTTCTCTGCGGCGACAGATGCTGAAAATAATAACGCCTGCTCTCTCTTTACAACCAAGGTCAACATGAGTCTGTTTCCCGTTAT (double strand) [aaeX/qseA spacer probe (gel shift)],binding,binds
